Data taken from publication PMC12015307 (Nature Communications, 2025).

B1: 80-nt ssDNA (ssDNA)
DNA: CGCCTACATACCTCGCTCTGCTAATCCTGTTACCAGTGGCTGCTGCCAGTGGCGATAAGTCGTGTCTTACCGGGTTGGAC
B2: His-SAMD9, recombinant full-length human SAMD9 (natural protein)
chain: MAKQLNLPENTDDWTKEDVNQWLESHKIDQKHREILTEQDVNGAVLKWLKKEHLVDMGITHGPAIQIEELFKELRKTAIEDSIQTSKMGKPSKNAPKDQTVSQKERRETSKQKQKGKENPDMANPSAMSTTAKGSKSLKVELIEDKIDYTKERQPSIDLTCVSYPFDEFSNPYRYKLDFSLQPETGPGNLIDPIHEFKAFTNTATATEEDVKMKFSNEVFRFASACMNSRTNGTIHFGVKDKPHGKIVGIKVTNDTKEALINHFNLMINKYFEDHQVQQAKKCIREPRFVEVLLPNSTLSDRFVIEVDIIPQFSECQYDYFQIKMQNYNNKIWEQSKKFSLFVRDGTSSKDITKNKVDFRAFKADFKTLAESRKAAEEKFRAKTNKKEREGPKLVKLLTGNQDLLDNSYYEQYILVTNKCHPDQTKHLDFLKEIKWFAVLEFDPESNINGVVKAYKESRVANLHFPSVYVEQKTTPNETISTLNLYHQPSWIFCNGRLDLDSEKYKPFDPSSWQRERASDVRKLISFLTHEDIMPRGKFLVVFLLLSSVDDPRDPLIETFCAFYQDLKGMENILCICVHPHIFQGWKDLLEARLIKHQDEISSQCISALSLEEINGTILKLKSVTQSSKRLLPSIGLSTVLLKKEEDIMTALEIICENECEGTLLEKDKNKFLEFKASKEEDFYRGGKVSWWNFYFSSESYSSPFVKRDKYERLEAMIQNCADSSKPTSTKIIHLYHHPGCGGTTLAMHILWELRKKFRCAVLKNKTVDFSEIGEQVTSLITYGAMNRQEYVPVLLLVDDFEEQDNVYLLQYSIQTAIAKKYIRYEKPLVIILNCMRSQNPEKSARIPDSIAVIQQLSPKEQRAFELKLKEIKEQHKNFEDFYSFMIMKTNFNKEYIENVVRNILKGQNIFTKEAKLFSFLALLNSYVPDTTISLSQCEKFLGIGNKKAFWGTEKFEDKMGTYSTILIKTEVIECGNYCGVRIIHSLIAEFSLEELKKSYHLNKSQIMLDMLTENLFFDTGMGKSKFLQDMHTLLLTRHRDEHEGETGNWFSPFIEALHKDEGNEAVEAVLLESIHRFNPNAFICQALARHFYIKKKDFGNALNWAKQAKIIEPDNSYISDTLGQVYKSKIRWWIEENGGNGNISVDDLIALLDLAEHASSAFKESQQQSEDREYEVKERLYPKSKRRYDTYNIAGYQGEIEVGLYTIQILQLIPFFDNKNELSKRYMVNFVSGSSDIPGDPNNEYKLALKNYIPYLTKLKFSLKKSFDFFDEYFVLLKPRNNIKQNEEAKTRRKVAGYFKKYVDIFCLLEESQNNTGLGSKFSEPLQVERCRRNLVALKADKFSGLLEYLIKSQEDAISTMKCIVNEYTFLLEQCTVKIQSKEKLNFILANIILSCIQPTSRLVKPVEKLKDQLREVLQPIGLTYQFSEPYFLASLLFWPENQQLDQHSEQMKEYAQALKNSFKGQYKHMHRTKQPIAYFFLGKGKRLERLVHKGKIDQCFKKTPDINSLWQSGDVWKEEKVQELLLRLQGRAENNCLYIEYGINEKITIPITPAFLGQLRSGRSIEKVSFYLGFSIGGPLAYDIEIV
B3: 20-bp dsDNA (dsDNA)
DNA 1: GATAAGGACTCGTATGTACC
DNA 2: GGTACATACGAGTCCTTATC
B4: 15-bp dsDNA (dsDNA)
DNA 1: GATAAGGACTCGTAT
DNA 2: ATACGAGTCCTTATC

Experiments:
His-SAMD9 = His-SAMD9 (Homo sapiens, UniProt Q5K651 1-1589); assay: EMSA
native gel or EMSA = target: the molecule itself; assay: native gel or EMSA

| Binder | binding result (His-SAMD9) | binding result (native gel or EMSA) |
| --- | --- | --- |
| B1 | no binding |  |
| B2 |  | binds |
| B3 | no binding |  |
| B4 | no binding |  |
